{"source": "patent US20250297012A1", "about": "(HEFEI TG IMMUNOPHARMA, published 2025)", "binders": {"B1": {"name": "murine CD16A antibody m40F5 (antibody, mouse IgG2a, kappa)", "heavy": "DVQLQESGPGLVKPSQSLSLTCTVTGYSITSDYAWNWIRQFPGNKLEWMGYISYSGYTNYNPSLESRISVTRDTSKNQFFLQLNSVTTEDTATYYCAREVGLRLGWFAYWGQGTLVAVSAAKTTAPSVYPLAPVCGDTTGSSVTLGCLVKGYFPEPVTLTWNSGSLSSGVHTFPAVLQSDLYTLSSSVTVTSSTWPSQSITCNVAHPASSTKVDKKIEPRGPTIKPCPPCKCPAPNLLGGPSVFIFPPKIKDVLMISLSPIVTCVVVDVSEDDPDVQISWFVNNVEVHTAQTQTHREDYNSTLRVVSALPIQHQDWMSGKEFKCKVNNKDLPAPIERTISKPKGSVRAPQVYVLPPPEEEMTKKQVTLTCMVTDFMPEDIYVEWTNNGKTELNYKNTEPVLDSDGSYFMYSKLRVEKKNWVERNSYSCSVVHEGLHNHHTTKSFSRTPGK", "light": "SIVMTQTPKFLLISAGDRVTITCKASQSVNNDVAWYQQKPGQSPKLLIYYASNRYTGVPDHFTGSGYGTDFTFTISTVQAEDLAVYFCQQHYSSPWTFGGGTKLEFKRADAAPTVSIFPPSSEQLTSGGASVVCFLNNFYPKDINVKWKIDGSERQNGVLNSWTDQDSKDSTYSMSSTLTLTKDEYERHNSYTCEATHKTSTSPIVKSFNRNEC", "notes": "also called murine m40F5 antibody; murine 40F5"}, "B2": {"name": "bispecific antibody CD16A×BCMA (bispecific antibody, human IgG1, L234A L235A)", "chain 1": "not shown", "chain 2": "DIQMTQSPSSLSASVGDRVTITCSASQDISNYLNWYQQKPGKAPKLLIYYTSNLHSGVPSRFSGSGSGTDFTLTISSLQPEDFATYYCQQYRKLPWTFGQGTKLEIKRGGGGSGGGGSGGGGSQVQLVQSGAEVKKPGSSVKVSCKASGGTFSNYWMHWVRQAPGQGLEWMGATYRGHSDTYYNQKFKGRVTITADKSTSTAYMELSSLRSEDTAVYYCARGAIYDGYDVLDNWGQGTLVTVSSEPKSCDKTHTCPPCPAPEAAGGPSVFLFPPKPKDTLMISRTPEVTCVVVDVSHEDPEVKFNWYVDGVEVHNAKTKPREEQYNSTYRVVSVLTVLHQDWLNGKEYKCKVSNKALPAPIEKTISKAKGQPREPQVCTLPPSREEMTKNQVSLSCAVKGFYPSDIAVEWESNGQPENNYKTTPPVLDSDGSFFLVSKLTVDKSRWQQGNVFSCSVMHEALHNHYTQKSLSLSPGK", "notes": "also called CD16A×BCMA bispecific antibody"}, "B3": {"name": "bispecific antibody CD16A×B7H6 (bispecific antibody, human IgG1, L234A L235A)", "chain 1": "not shown", "chain 2": "DIVLTQTPLSLSVTPGQPASISCKASQSVDYDGDSYMNWYLQKPGQPPQLLIYAASTLHSGIPDRFSGSGSGTDFTLKISRVEAEDVGVYYCQQSKEDPRTFGQGTKLEIKGGGGSGGGGSGGGGSEVQLVQSGAEVKKPGASVKVSCKASGYTFTDYNMDWVRQAPGQGLEWIGDINPNNGGTLYNQKFRGRVTLTVDTSISTAYMELSRLRSDDTAVYYCARSEVFYGNYADYWGQGTTVTVSSEPKSCDKTHTCPPCPAPEAAGGPSVFLFPPKPKDTLMISRTPEVTCVVVDVSHEDPEVKFNWYVDGVEVHNAKTKPREEQYNSTYRVVSVLTVLHQDWLNGKEYKCKVSNKALPAPIEKTISKAKGQPREPQVCTLPPSREEMTKNQVSLSCAVKGFYPSDIAVEWESNGQPENNYKTTPPVLDSDGSFFLVSKLTVDKSRWQQGNVFSCSVMHEALHNHYTQKSLSLSPGK", "notes": "also called CD16A×B7H6 bispecific antibody"}}, "key": {"[1]": {"target": "T1, cynomolgus monkey CD16 protein on CHO-K1 cells overexpressing cynomolgus monkey CD16 (cynomolgus monkey, UniProt Q8SPW2 17-254)", "T1 construct": "also called CHO cell overexpressing a cynomolgus monkey CD16A protein; monkey CD16A protein", "T1 sequence (Q8SPW2 17-254 limits assumed)": "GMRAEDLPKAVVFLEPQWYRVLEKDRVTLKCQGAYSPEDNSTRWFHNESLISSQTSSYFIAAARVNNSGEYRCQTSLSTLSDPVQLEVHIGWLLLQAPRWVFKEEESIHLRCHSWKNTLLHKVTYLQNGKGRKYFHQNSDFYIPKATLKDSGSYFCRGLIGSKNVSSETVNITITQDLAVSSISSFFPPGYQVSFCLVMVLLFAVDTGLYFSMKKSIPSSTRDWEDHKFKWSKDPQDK", "test": "Flow cytometry on CHO-K1 cells overexpressing cynomolgus monkey CD16, Alexa-647 goat anti-mouse secondary antibody, binding proportion (%)", "experimental": "(§1) The CHO-K1 cells overexpressing human CD16A or CHO-K1 cells overexpressing cynomolgus monkey CD16 obtained in Example 1 were diluted to 2×10⁶/mL with PBS and added to a 1.5 mL EP tube at a volume of 100 μL/tube. Then, 10 μL of goat serum was added to each tube. The mixture was blocked at 4° C. for 30 min. The CD16A antibody and the control antibody mlgG at gradient concentrations (5-fold serial dilution, with the highest final concentration of 10 μg/mL) were added and incubated at 4° C. for 30 minutes. Each EP tube was filled with 1 mL of PBS and centrifuged at 3,500 rpm for 5 min at 4° C. The supernatant was completely discarded, and the cells were washed once again with PBS. After another centrifugation, the supernatant was completely discarded. The cells were resuspended in 100 μL/tube of PBS. Alexa-647-conjugated goat anti-murine antibody secondary antibody (Invitrogen) was added at […]. The cells were incubated at 4° C. in the dark for 30 min, and were washed twice with PBS and centrifuged. Then, the supernatant was completely discarded. The cells were resuspended in 200 μL/tube of PBS and detected using a flow cytometer."}, "[2]": {"target": "T2, human CD16A protein on CHO-K1 cells overexpressing human CD16A (human, UniProt P08637 17-254)", "T2 construct": "also called CHO cell overexpressing a human CD16A protein", "T2 sequence (P08637 17-254 limits assumed)": "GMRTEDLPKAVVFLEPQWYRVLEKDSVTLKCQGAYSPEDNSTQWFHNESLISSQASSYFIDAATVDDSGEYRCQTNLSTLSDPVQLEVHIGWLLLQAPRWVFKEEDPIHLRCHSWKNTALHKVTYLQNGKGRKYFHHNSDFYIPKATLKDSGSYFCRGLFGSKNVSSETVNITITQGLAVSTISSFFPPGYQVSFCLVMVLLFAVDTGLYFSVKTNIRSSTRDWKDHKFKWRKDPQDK", "test": "Flow cytometry on CHO-K1 cells overexpressing human CD16A, Alexa-647 goat anti-mouse secondary antibody, binding proportion (%)", "experimental": "as §1"}, "[3]": {"target": "T3, human CD16B^SH (Sino Biological, 11046-H08H2) (human, UniProt O75015 17-200)", "T3 construct": "Bought protein; SH polymorphic form; also called human CD16B^SH protein", "T3 sequence (O75015 17-200 N65S/A78D limits assumed)": "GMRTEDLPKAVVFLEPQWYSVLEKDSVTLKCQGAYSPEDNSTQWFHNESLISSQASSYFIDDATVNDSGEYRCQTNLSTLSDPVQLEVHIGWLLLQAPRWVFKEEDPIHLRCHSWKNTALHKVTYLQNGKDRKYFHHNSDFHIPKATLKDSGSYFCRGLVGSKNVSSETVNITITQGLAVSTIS", "test": "ELISA, plate coated with human CD16B^SH at 2 µg/mL, HRP-goat anti-mouse IgG, OD450", "experimental": "(§2) The ELISA experiment was performed to detect the binding properties of the murine CD16A antibody m40F5 obtained in Example 1. […] Then, the plate was then washed three times with PBST (0.05% Tween 20-PBS, pH 7.2). 300 μL of blocking buffer (1% BSA, 0.05% Tween20-PBS, pH 7.2) was added to the plate and left to stand at room temperature for 2 hours. Then, the plate was washed again three times with PBST. Murine antibody m40F5 or control antibody LS21 (WO2006/125668 EN) was added to each well and incubated at room temperature for 1 hour.\n(§3) Again, the plate was washed three times with PBST. 100 μL of HRP-goat anti-mouse IgG secondary antibody (boster, Catalog No. BA1051) diluted with the blocking buffer was added to each well and incubated at room temperature for 1 hour. The plate was washed three times with PBST. TMB was added to each well. A reaction was performed at room temperature in the dark for 2 min to 5 min. The reaction was terminated with 2 M sulfuric acid. OD450 values were read using a microplate reader."}, "[4]": {"target": "T4, human CD16B^NA2 (ACRO biosystems, CDB-H5222) (human, UniProt O75015 17-200)", "T4 construct": "Bought protein; NA2 polymorphic form; also called human CD16B^NA2 protein", "T4 sequence (O75015 17-200 N65S limits assumed)": "as the sequence (O75015 17-200 N65S/A78D limits assumed) above, with D62A counted along it", "test": "ELISA, plate coated with human CD16B^NA2 at 2 µg/mL, HRP-goat anti-mouse IgG, OD450", "experimental": "as §2, §3"}, "[5]": {"target": "T5, cynomolgus monkey CD16 (ACRO biosystems, FC6-C52H9) (cynomolgus monkey, UniProt Q8SPW2 17-208)", "T5 construct": "Bought protein; also called monkey CD16 protein; monkey CD16 antigen", "T5 sequence (Q8SPW2 17-208 limits assumed)": "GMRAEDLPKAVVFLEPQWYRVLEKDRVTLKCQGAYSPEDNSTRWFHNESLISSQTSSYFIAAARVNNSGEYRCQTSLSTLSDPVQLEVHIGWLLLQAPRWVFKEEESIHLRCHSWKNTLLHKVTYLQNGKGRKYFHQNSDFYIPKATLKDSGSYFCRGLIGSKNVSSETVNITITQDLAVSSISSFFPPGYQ", "test": "ELISA, plate coated with cynomolgus monkey CD16 at 2 µg/mL, HRP-goat anti-mouse IgG, OD450", "experimental": "as §2, §3"}, "[6]": {"target": "T6, human CD16B^NA1 (ACRO biosystems, CDB-H5227) (human, UniProt O75015 17-200, limits assumed)", "T6 construct": "Bought protein; NA1 polymorphic form; also called human CD16B^NA1 protein", "T6 sequence (O75015 other isoform, or with tags, fused parts or gaps limits assumed)": "as the sequence (O75015 17-200 N65S/A78D limits assumed) above, with S20R, S49N, D62A, N66D, I90V counted along it", "test": "ELISA, plate coated with human CD16B^NA1 at 2 µg/mL, HRP-goat anti-mouse IgG, OD450", "experimental": "as §2, §3"}, "[7]": {"target": "T7, human CD16A^158V (ACRO biosystems, CD8-H52H4) (human, UniProt P08637 17-208)", "T7 construct": "Bought protein; It is the 158V polymorphic form; also called human CD16A^158V protein", "T7 sequence (P08637 17-208 F176V limits assumed)": "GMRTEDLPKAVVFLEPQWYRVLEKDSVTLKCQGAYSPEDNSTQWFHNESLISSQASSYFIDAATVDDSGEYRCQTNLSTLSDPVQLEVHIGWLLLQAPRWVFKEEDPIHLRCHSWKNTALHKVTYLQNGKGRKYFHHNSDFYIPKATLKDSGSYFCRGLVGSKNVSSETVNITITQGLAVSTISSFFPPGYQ", "test": "ELISA, plate coated with human CD16A^158V at 2 µg/mL, HRP-goat anti-mouse IgG, OD450", "experimental": "as §2, §3"}, "[8]": {"target": "T8, human CD16A^158F (ACRO biosystems, CDA-H5220) (human, UniProt P08637 17-208)", "T8 construct": "extracellular domain; Bought protein; also called human CD16A extracellular segment protein", "T8 sequence (P08637 17-208)": "as the sequence (P08637 17-208 F176V limits assumed) above, with V160F counted along it", "test": "ELISA, plate coated with human CD16A^158F at 2 µg/mL, HRP-goat anti-mouse IgG, OD450", "experimental": "as §2, §3"}, "[9]": {"target": "T9, Human BCMA (ACRO biosystems, BCA-H522y) (human, UniProt Q02223 1-54)", "T9 construct": "Bought protein; also called human BCMA protein; BCMA antigen", "T9 sequence (looked up)": "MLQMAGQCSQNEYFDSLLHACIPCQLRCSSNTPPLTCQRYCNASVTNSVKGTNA", "test": "ELISA, plate coated with human BCMA at 2 µg/mL, HRP-goat anti-human IgG, OD450", "experimental": "(§4) Human BCMA (ACRO biosystems, BCA-H522y) or human CD16A antigen (ACRO biosystems, CDD-H52W1) was diluted to 2 μg/mL with the coating buffer (35 mM NaHCO₃, 15 mM Na₂CO₃, pH 9.6). 100 μL of the diluted solution was added to each well of the enzyme-linked plate and incubated overnight at 4° C. Then, the plate was washed three times with PBST (0.05% Tween 20-PBS, pH 7.2). 300 μL of blocking buffer (1% BSA, 0.05% Tween20-PBS, pH 7.2) was added to the plate and left to stand at room temperature for 2 hours. The plate was washed three times with PBST again. The corresponding bispecific antibody or the control antibody hIgG1 was added to each well and incubated at room temperature for 1 hour. The precipitate was washed three times with PBST. 100 μL of HRP-goat anti-human IgG secondary antibody (Jackson ImmunoResearch, 109-036-170) diluted with the blocking buffer was added to each well and incubated at room temperature for 1 hour. The plate was washed three times with PBST. TMB was added to each well. A reaction was performed at room temperature in the dark for 2 min to 5 min. The reaction was terminated by adding 2 M sulfuric acid to each well. OD450 values were read using a microplate reader."}, "[10]": {"target": "T10, human CD16A antigen (ACRO biosystems, CDD-H52W1) (human, UniProt P08637 17-208, limits assumed)", "T10 construct": "Bought protein; also called human CD16A protein", "T10 sequence (P08637 17-208 limits assumed)": "as the sequence (P08637 17-208 F176V limits assumed) above, with V160F counted along it", "test": "ELISA, plate coated with human CD16A at 2 µg/mL, HRP-goat anti-human IgG, OD450", "experimental": "as §4"}, "[11]": {"target": "T11, Human B7H6 (ACRO biosystems, B76-H52H8) (human, UniProt Q68D85 25-262)", "T11 construct": "Bought protein; also called human B7H6 protein; B7H6 antigen", "T11 sequence (looked up)": "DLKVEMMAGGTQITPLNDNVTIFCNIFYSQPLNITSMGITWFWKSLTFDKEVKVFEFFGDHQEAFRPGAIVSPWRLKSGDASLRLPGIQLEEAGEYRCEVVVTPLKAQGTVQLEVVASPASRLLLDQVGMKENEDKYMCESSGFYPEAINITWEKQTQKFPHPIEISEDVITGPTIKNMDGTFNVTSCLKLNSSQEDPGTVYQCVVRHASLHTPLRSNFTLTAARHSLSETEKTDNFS", "test": "ELISA, plate coated with human B7H6 at 2 µg/mL, HRP-goat anti-human IgG, OD450", "experimental": "(§5) Human B7H6 (ACRO biosystems, B76-H52H8) or human CD16A antigen (ACRO biosystems, Catalog No. CDA-H5220) was diluted to 2 μg/mL with the coating buffer (35 mM NaHCO₃, 15 mM Na₂CO₃, pH 9.6). 100 μL of the diluted solution was added to each well of the enzyme-linked plate and incubated overnight at 4° C. Then, the plate was washed three times with PBST (0.05% Tween 20-PBS, pH 7.2). 300 μL of blocking buffer (1% BSA, 0.05% Tween20-PBS, pH 7.2) was added to the plate and left to stand at room temperature for 2 hours. The plate was washed three times with PBST again. The corresponding bispecific antibody or control antibody hIgG was added to each well and incubated at room temperature for 1 hour. Again, the plate was washed three times with PBST. 100 μL of HRP-goat anti-human IgG secondary antibody (Jackson ImmunoResearch, 109-036-170) diluted with the blocking buffer was added to each well and incubated at room temperature for 1 hour. After incubation, the precipitate was washed three times with PBST. TMB was added to each well. A reaction was performed at room temperature in the dark for 2 min to 5 min. The reaction was terminated by adding 2 M sulfuric acid to each well. OD450 values were read using a microplate reader."}, "[12]": {"target": "T8, human CD16A^158F (ACRO biosystems, …)", "test": "ELISA, plate coated with human CD16A at 2 µg/mL, HRP-goat anti-human IgG, OD450", "experimental": "as §5"}}}
{"binder": "B1", "values": [{"measurement": "EC50 (read off the curve)", "setting": "[1]", "value": "~0.005", "unit": "µg/mL"}, {"measurement": "EC50 (read off the curve)", "setting": "[2]", "value": "~0.02", "unit": "µg/mL"}, {"measurement": "binding result", "setting": "[3]", "value": "no binding (tested: 10^4 ng/ml)"}, {"measurement": "binding result", "setting": "[4]", "value": "no binding (tested: 10^4 ng/ml)"}, {"measurement": "EC50 (read off the curve)", "setting": "[5]", "value": "~0.02", "unit": "µg/mL"}, {"measurement": "binding result", "setting": "[6]", "value": "no binding (tested: 10^4 ng/ml)"}, {"measurement": "EC50 (read off the curve)", "setting": "[7]", "value": "~0.03", "unit": "µg/mL"}, {"measurement": "EC50 (read off the curve)", "setting": "[8]", "value": "~0.02", "unit": "µg/mL"}]}
{"binder": "B2", "values": [{"measurement": "EC50 (read off the curve)", "setting": "[9]", "value": "~0.006", "unit": "µg/mL"}, {"measurement": "EC50 (read off the curve)", "setting": "[10]", "value": "~0.04", "unit": "µg/mL"}]}
{"binder": "B3", "values": [{"measurement": "EC50 (read off the curve)", "setting": "[11]", "value": "~0.005", "unit": "µg/mL"}, {"measurement": "EC50 (read off the curve)", "setting": "[12]", "value": "~0.05", "unit": "µg/mL"}]}
